This note sets out measurements from article PMC11115209.

The target in assay [1] is His6-TBC1D15 (UniProt Q8TC07). Put plainly: HA beads pulldown, immunoblot band quantification. The note with it: read off a plot.
In assay [2] the target is His6-TBC1D15 (UniProt Q8TC07). The experiment in a line: immunoprecipitation with Flag beads, immunoblot band quantification. The note with it: HA-SUMO2 co-expressed, read off a plot, scale: relative band intensity.
Where [3] appears, read: + SulF (GST-SulF), parent: est. 0.16.

Sequence of UniProt Q8TC07 (Q8TC07 whole entry, looked up): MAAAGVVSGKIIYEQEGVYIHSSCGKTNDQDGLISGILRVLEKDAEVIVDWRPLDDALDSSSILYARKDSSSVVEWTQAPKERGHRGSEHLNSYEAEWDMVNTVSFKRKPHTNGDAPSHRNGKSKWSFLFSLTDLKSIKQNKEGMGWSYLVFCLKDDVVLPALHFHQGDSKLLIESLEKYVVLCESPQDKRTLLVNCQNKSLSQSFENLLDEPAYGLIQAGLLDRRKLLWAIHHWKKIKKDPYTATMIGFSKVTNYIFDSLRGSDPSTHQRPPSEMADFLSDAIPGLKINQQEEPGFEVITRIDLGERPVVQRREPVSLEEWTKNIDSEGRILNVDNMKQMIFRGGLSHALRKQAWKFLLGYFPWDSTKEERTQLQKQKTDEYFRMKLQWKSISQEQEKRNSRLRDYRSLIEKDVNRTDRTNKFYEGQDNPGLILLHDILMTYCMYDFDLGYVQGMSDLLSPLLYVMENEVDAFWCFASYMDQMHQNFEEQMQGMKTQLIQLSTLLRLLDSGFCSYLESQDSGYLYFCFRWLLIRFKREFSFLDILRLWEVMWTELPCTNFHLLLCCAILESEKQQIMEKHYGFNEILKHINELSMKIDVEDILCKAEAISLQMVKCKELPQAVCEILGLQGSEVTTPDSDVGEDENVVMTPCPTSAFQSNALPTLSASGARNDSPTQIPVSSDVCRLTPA

For the substance Flag-Rab7 WT (Rab7 part of m4) Q67L, the response (relative ratio) is 1 with His6-TBC1D15 [1] (Buffer added after 1 h incubation), 1.1 with His6-TBC1D15 [1] (GST added after 1 h incubation), 0.34 with His6-TBC1D15 [1] (GST-SulF added after 1 h incubation (competition)) and 1.1 with His6-TBC1D15 [1] (GST-SulFIV/AA added after 1 h incubation (competition)). The response came out at 0.88 with His6-TBC1D15 [2] (+ GST, parent: est. 0.25) and 0.48 with His6-TBC1D15 [2] (setting [3]).

Consider “Flag-Rab7 WT (Rab7 part of m4) Q67L; K175R”, for which the response with His6-TBC1D15 [2] (+ GST, parent: est. 0.25) worked out at 1; in the assay with His6-TBC1D15 [2] (setting [3]), 1.1.

On to Flag-Rab7 WT (Rab7 part of m4) T22N, for which the response with His6-TBC1D15 [2] (+ GST, parent: est. 0.25) came out at 0.57; with His6-TBC1D15 [2] (setting [3]), 0.31.
